Columns and labels:
[1] = target: T1, HA-SND1, full-length human, wild type (human, UniProt Q7KZF4 1-910); experiment: anti-HA co-IP (as printed on the sheet) from HEK293T lysate, western blot
T1 construct: Full-length, HA-tagged; Expressed in HEK293T cells, tested in lysate; also called HA-tagged SND1; WT HA-SND1
T1 sequence: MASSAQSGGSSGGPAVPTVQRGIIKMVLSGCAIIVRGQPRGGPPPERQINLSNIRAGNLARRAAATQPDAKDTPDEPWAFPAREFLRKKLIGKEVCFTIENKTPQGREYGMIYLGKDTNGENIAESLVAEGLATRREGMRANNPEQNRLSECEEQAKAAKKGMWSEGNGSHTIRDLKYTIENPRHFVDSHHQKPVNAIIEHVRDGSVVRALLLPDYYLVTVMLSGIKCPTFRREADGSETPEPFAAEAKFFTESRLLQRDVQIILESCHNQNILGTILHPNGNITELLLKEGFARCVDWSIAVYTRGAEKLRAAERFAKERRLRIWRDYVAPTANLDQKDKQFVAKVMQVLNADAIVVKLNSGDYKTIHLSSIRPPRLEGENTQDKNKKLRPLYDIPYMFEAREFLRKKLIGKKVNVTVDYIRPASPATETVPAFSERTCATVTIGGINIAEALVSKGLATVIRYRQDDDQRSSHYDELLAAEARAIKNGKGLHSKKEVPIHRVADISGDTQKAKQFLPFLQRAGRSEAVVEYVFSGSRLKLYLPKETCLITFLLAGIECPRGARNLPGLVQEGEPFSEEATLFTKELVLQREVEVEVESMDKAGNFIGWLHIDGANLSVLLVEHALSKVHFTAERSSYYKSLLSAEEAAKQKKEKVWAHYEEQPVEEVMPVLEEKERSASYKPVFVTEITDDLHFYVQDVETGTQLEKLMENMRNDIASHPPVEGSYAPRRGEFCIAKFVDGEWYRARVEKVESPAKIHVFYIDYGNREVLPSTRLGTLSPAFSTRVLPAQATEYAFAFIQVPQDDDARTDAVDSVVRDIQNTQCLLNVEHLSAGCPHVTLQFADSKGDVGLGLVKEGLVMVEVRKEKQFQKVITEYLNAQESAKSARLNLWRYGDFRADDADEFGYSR
Description: The proteins bound to GS4B were examined on SDS-PAGE and visualized by Coomassie blue staining. […] The bound proteins were examined as in (FIG. 22A). For both (FIG. 22A) and (FIG. 22B), experiments were repeated three times; representative results are shown. The normalized percentage of binding was averaged from three experiments; mean±SEM was shown below the data. (FIG. 22C) HEK293T cells were transfected with human HA-SND1, WT Myc-MTDH or Myc-MTDH with indicated single point mutation. […] (FIG. 22D) HEK293T cells were transfected with human Myc-MTDH, WT HA-SND1 or mutant HA-SND1 with indicated single point mutations or deletions. […]
Immunoprecipitation and western blot: For in vivo immunoprecipitation (IP) experiments, cultured cells were washed in cold PBS and lysed in lysis buffer (20 mM Tris pH 7.4, 0.15 M NaCl, 1 mM EDTA, 1 mM EGTA, 1% Tx-100, 0.0025 M Na2P2O7, 1 mM β-glycerolphosphate, 1 mM Na3VO4, and 1 mM NaF) with an EDTA-free protease inhibitor mixture (Roche Applied Science) and PMSF. Cell lysates were then incubated on ice for 10 min, centrifuged, and precleared by incubating with protein A/G beads (Santa Cruz Biotechnology) for 1 h at 4° C. For IP bead preparation, 30 μl of protein A/G beads were incubated with 5 μg of antibodies for 2 h at 4° C. […]

[2] = target: T1, HA-SND1, full-length human, wild type; experiment: co-IP (anti-Myc) from HEK293T lysates, western blot
[3] = target: human AGO2 (ectopically expressed in HEK293T cells) (human, UniProt Q9UKV8 1-859); experiment: as above
Sequence of human AGO2 (ectopically expressed in HEK293T cells) (Q9UKV8 whole entry): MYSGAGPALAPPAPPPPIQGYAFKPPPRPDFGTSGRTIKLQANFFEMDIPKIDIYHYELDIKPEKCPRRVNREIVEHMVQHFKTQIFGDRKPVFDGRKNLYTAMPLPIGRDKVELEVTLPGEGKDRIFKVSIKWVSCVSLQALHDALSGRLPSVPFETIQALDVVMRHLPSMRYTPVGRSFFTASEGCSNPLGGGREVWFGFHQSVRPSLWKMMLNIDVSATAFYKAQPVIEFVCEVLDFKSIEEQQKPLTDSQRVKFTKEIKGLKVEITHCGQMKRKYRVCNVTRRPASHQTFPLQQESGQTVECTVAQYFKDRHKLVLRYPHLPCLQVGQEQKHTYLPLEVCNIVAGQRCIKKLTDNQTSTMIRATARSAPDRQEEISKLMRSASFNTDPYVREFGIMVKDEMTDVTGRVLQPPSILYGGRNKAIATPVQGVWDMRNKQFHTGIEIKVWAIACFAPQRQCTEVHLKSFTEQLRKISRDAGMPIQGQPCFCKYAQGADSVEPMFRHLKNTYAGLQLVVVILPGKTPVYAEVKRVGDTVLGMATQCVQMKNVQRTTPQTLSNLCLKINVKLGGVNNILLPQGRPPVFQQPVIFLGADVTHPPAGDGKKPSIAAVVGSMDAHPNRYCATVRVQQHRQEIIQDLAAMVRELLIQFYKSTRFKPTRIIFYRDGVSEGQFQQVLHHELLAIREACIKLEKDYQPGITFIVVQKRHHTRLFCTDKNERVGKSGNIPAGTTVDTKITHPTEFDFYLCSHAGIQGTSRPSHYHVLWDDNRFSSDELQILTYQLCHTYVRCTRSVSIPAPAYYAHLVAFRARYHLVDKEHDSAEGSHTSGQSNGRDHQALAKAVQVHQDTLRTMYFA

Binder	binding result [1]	binding result [2]	binding result [3]
Myc-MTDH E399R, full-length human (other, Full-length, Myc-tagged; also called SPM21) MAARSWQDELAQQAEEGSARLREMLSVGLGFLRTELGLDLGLEPKRYPGWVILVGTGALGLLLLFLLGYGWAAACAGSRKKRRSPPRKREEAAAVPAAAPDDLALLKNLRSEEQKKKNRKKLSEKPKPNGRTVEVAEGEAVRTPQSVTAKQPPEIDKKNEKSKKNKKKSKSDAKAVQNSSRHDGKEVDEGAWETKISHREKRQQRKRDKVLTDSGSLDSTIPGIENTITVTTEQLTTASFPVGSKKNKGDSHLNVQVSNFKSGKGDSTLQVSSGLNENLTVNGGGWNEKSVKLSSQISAGEEKWNSVSPASAGKRKAEPSAWSQDTGDANTNGKDWGRSWSDRSIFSGIGSTAEPVSQSTTSDYQWDVSRNQPYIDDEWSGLNGLSSADPNSDWNAPAREWGNWVDEERASLLKSQEPIPDDQKVSDDDKEKGEGALPTGKSKKKKKKKKKQGEDNSTAQDTEELEKEIREDLPVNTSKTRPKQEKAFSLKTISTSDPAEVLVKNSQPIKTLPPATSTEPSVILSKSDSDKSSSQVPPILQETDKSKSNTKQNSVPPSQTKSETSWESPKQIKKKKKARRET	binds		
Myc-MTDH TPM2 (E399R, E400R, W401D), full-length human (other, Full-length, Myc-tagged; also called TPM2 MTDH) MAARSWQDELAQQAEEGSARLREMLSVGLGFLRTELGLDLGLEPKRYPGWVILVGTGALGLLLLFLLGYGWAAACAGSRKKRRSPPRKREEAAAVPAAAPDDLALLKNLRSEEQKKKNRKKLSEKPKPNGRTVEVAEGEAVRTPQSVTAKQPPEIDKKNEKSKKNKKKSKSDAKAVQNSSRHDGKEVDEGAWETKISHREKRQQRKRDKVLTDSGSLDSTIPGIENTITVTTEQLTTASFPVGSKKNKGDSHLNVQVSNFKSGKGDSTLQVSSGLNENLTVNGGGWNEKSVKLSSQISAGEEKWNSVSPASAGKRKAEPSAWSQDTGDANTNGKDWGRSWSDRSIFSGIGSTAEPVSQSTTSDYQWDVSRNQPYIDDEWSGLNGLSSADPNSDWNAPARRDGNWVDEERASLLKSQEPIPDDQKVSDDDKEKGEGALPTGKSKKKKKKKKKQGEDNSTAQDTEELEKEIREDLPVNTSKTRPKQEKAFSLKTISTSDPAEVLVKNSQPIKTLPPATSTEPSVILSKSDSDKSSSQVPPILQETDKSKSNTKQNSVPPSQTKSETSWESPKQIKKKKKARRET		no binding	binds
Myc-MTDH TPM1 (D389R, D393R, W394D), full-length human (other, Full-length, Myc-tagged; also called TPM1 MTDH) MAARSWQDELAQQAEEGSARLREMLSVGLGFLRTELGLDLGLEPKRYPGWVILVGTGALGLLLLFLLGYGWAAACAGSRKKRRSPPRKREEAAAVPAAAPDDLALLKNLRSEEQKKKNRKKLSEKPKPNGRTVEVAEGEAVRTPQSVTAKQPPEIDKKNEKSKKNKKKSKSDAKAVQNSSRHDGKEVDEGAWETKISHREKRQQRKRDKVLTDSGSLDSTIPGIENTITVTTEQLTTASFPVGSKKNKGDSHLNVQVSNFKSGKGDSTLQVSSGLNENLTVNGGGWNEKSVKLSSQISAGEEKWNSVSPASAGKRKAEPSAWSQDTGDANTNGKDWGRSWSDRSIFSGIGSTAEPVSQSTTSDYQWDVSRNQPYIDDEWSGLNGLSSARPNSRDNAPAEEWGNWVDEERASLLKSQEPIPDDQKVSDDDKEKGEGALPTGKSKKKKKKKKKQGEDNSTAQDTEELEKEIREDLPVNTSKTRPKQEKAFSLKTISTSDPAEVLVKNSQPIKTLPPATSTEPSVILSKSDSDKSSSQVPPILQETDKSKSNTKQNSVPPSQTKSETSWESPKQIKKKKKARRET		no binding	binds
Myc-MTDH E400R, full-length human (other, Full-length, Myc-tagged; also called SPM22) MAARSWQDELAQQAEEGSARLREMLSVGLGFLRTELGLDLGLEPKRYPGWVILVGTGALGLLLLFLLGYGWAAACAGSRKKRRSPPRKREEAAAVPAAAPDDLALLKNLRSEEQKKKNRKKLSEKPKPNGRTVEVAEGEAVRTPQSVTAKQPPEIDKKNEKSKKNKKKSKSDAKAVQNSSRHDGKEVDEGAWETKISHREKRQQRKRDKVLTDSGSLDSTIPGIENTITVTTEQLTTASFPVGSKKNKGDSHLNVQVSNFKSGKGDSTLQVSSGLNENLTVNGGGWNEKSVKLSSQISAGEEKWNSVSPASAGKRKAEPSAWSQDTGDANTNGKDWGRSWSDRSIFSGIGSTAEPVSQSTTSDYQWDVSRNQPYIDDEWSGLNGLSSADPNSDWNAPAERWGNWVDEERASLLKSQEPIPDDQKVSDDDKEKGEGALPTGKSKKKKKKKKKQGEDNSTAQDTEELEKEIREDLPVNTSKTRPKQEKAFSLKTISTSDPAEVLVKNSQPIKTLPPATSTEPSVILSKSDSDKSSSQVPPILQETDKSKSNTKQNSVPPSQTKSETSWESPKQIKKKKKARRET	binds		

— patent publication US20190336574A1 (TRUSTEES OF PRINCETON UNIVERSITY, published 2019)
